Measurements from the supplement of paper PMC6757056.
± gives the standard deviation of the averaged measurements.

B1: library; a variant is named by its letters at N, in order (parent)
chain: GCUGUCACCGGUGCUUGGUACGUUAUAUUCAGCCGGUCUGAUGAGUCUNNNNNNAGACGAAACAGC

Experiments:
(6R,S)-folinic acid [1] = variants of: B1; test: normalized RNA/DNA level without ligand (relative to sTRSVctl = 100) (log10 (% of sTRSVctl)); HEK293T overexpressing SLC46A1; higher = less ribozyme self-cleavage, higher mRNA level; details: without (6R,S)-folinic acid; ligand present: no
Procedure, shortened: (§1)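 HEK293T cells received ligand, where used, 1 h before being transfected with 4 µg per 6-well well of library plasmids encoding reporter-linked ribozyme switches. After 72 h, RNA was extracted with EDTA and sequenced. RNA level was derived from RNA reads per DNA read, normalized to a spiked-in non-cleaving sequence or the top sequences, then scaled and log-transformed. Values were ×100 then log10, the top set was 25 sequences, and the minimum was 100 DNA reads.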

(6R,S)-folinic acid [2] = variants of: B1; test: normalized RNA/DNA level with ligand (relative to sTRSVctl = 100) (log10 (% of sTRSVctl)); HEK293T overexpressing SLC46A1; ligand concentration (+) RNA-Seq: 6 mM; higher = less ribozyme self-cleavage, higher mRNA level; details: with (6R,S)-folinic acid; ligand present: yes
Procedure, shortened: as §1

Row | Variant | normalized RNA/DNA level without ligand (log10) ((6R,S)-folinic acid [1]) | normalized RNA/DNA level with ligand (log10) ((6R,S)-folinic acid [2])
1 | GCUCUC | 2.126 ± 0.0057 | 2.08 ± 0.039
2 | ACAACU | 2.014 ± 0.0094 | 2.03 ± 0.045
3 | CUUCUU | 2.016 ± 0.0066 | 1.97 ± 0.025
4 | UAAUCU | 2.021 ± 0.012 | 2.046 ± 0.0022
5 | UUCCGC | 2.03 ± 0.026 | 2.01 ± 0.039
6 | CGGGGC | 2.03 ± 0.023 | 2.003 ± 0.014
7 | AUUCGU | 1.99 ± 0.0072 | 1.97 ± 0.057
8 | CCGAAU | 2.002 ± 0.013 | 2.019 ± 0.018
9 | ACAGUC | 2.0723 ± 0.0011 | 2.054 ± 0.0027
10 | ACAGUA | 1.947 ± 0.0079 | 1.99 ± 0.043
11 | AAGUCC | 2 ± 0.023 | 2.01 ± 0.024
12 | CACGGU | 1.954 ± 0.0088 | 1.95 ± 0.04
13 | CUUCCU | 1.996 ± 0.0085 | 2.02 ± 0.059
14 | GGCCUC | 2.044 ± 0.018 | 2.06 ± 0.025
15 | GCUAAC | 1.975 ± 0.015 | 2.015 ± 0.007
16 | GCUAAA | 1.992 ± 0.009 | 2.02 ± 0.028
17 | GACAGU | 1.99 ± 0.025 | 2 ± 0.053
18 | AUGCCC | 2.037 ± 0.016 | 2.02 ± 0.041
19 | UCAUCU | 2.064 ± 0.0079 | 2.055 ± 0.0055
20 | AUUGUC | 2.06 ± 0.038 | 2.05 ± 0.066
21 | CCAGUC | 2.06 ± 0.0079 | 2.0299 ± 0.00081
22 | UAUUCC | 1.972 ± 0.0012 | 1.986 ± 0.0039
23 | CCCUGU | 2.1 ± 0.0073 | 2.102 ± 0.016
24 | CCGACA | 2.02 ± 0.029 | 2.04 ± 0.035

Row | Variant | normalized RNA/DNA level without ligand (log10) ((6R,S)-folinic acid [1]) | normalized RNA/DNA level with ligand (log10) ((6R,S)-folinic acid [2])
25 | CUUACG | 2.007 ± 0.0022 | 2 ± 0.037
26 | GUCACA | 1.991 ± 0.0044 | 1.996 ± 0.0028
27 | GCUAUG | 1.99 ± 0.022 | 2.02 ± 0.035
28 | CCAACA | 2.033 ± 0.011 | 2 ± 0.047
29 | UUGCCA | 2.024 ± 0.013 | 2.042 ± 0.02
30 | CUAGUA | 1.996 ± 0.015 | 2 ± 0.034
31 | GAGUUC | 2.013 ± 0.02 | 2.025 ± 0.014
32 | AUUACG | 1.941 ± 0.005 | 2.026 ± 0.011
33 | AAUGCC | 2.026 ± 0.012 | 2.03 ± 0.03
34 | UUAGCG | 1.896 ± 0.0052 | 1.98 ± 0.032
35 | UCUCGC | 2.1 ± 0.032 | 2.05 ± 0.028
36 | CCCGUC | 2.05 ± 0.056 | 2.03 ± 0.065
37 | GCACAG | 1.936 ± 0.0048 | 2 ± 0.024
38 | UUACGC | 1.995 ± 0.011 | 1.995 ± 0.018
39 | AAAGUA | 1.937 ± 0.014 | 2 ± 0.037
40 | CUCUUC | 2.063 ± 0.0046 | 2.01 ± 0.024
41 | GACUUC | 2.08 ± 0.029 | 2.064 ± 0.014
42 | GACUUA | 1.982 ± 0.0071 | 1.99 ± 0.022
43 | GCGCGG | 2.064 ± 0.0074 | 2.03 ± 0.031
44 | AGGCGU | 2.02 ± 0.025 | 2.048 ± 0.0022
45 | GGUUCC | 2.028 ± 0.018 | 2.03 ± 0.037
46 | CGAAGA | 1.986 ± 0.0023 | 2.01 ± 0.049
47 | CUAAGG | 1.96 ± 0.0065 | 2.002 ± 0.014
48 | GGUUAA | 1.987 ± 0.0045 | 2.02 ± 0.031

Row | Variant | normalized RNA/DNA level without ligand (log10) ((6R,S)-folinic acid [1]) | normalized RNA/DNA level with ligand (log10) ((6R,S)-folinic acid [2])
49 | GCUUGC | 2.052 ± 0.01 | 2.01 ± 0.022
50 | UUCGAA | 1.947 ± 0.018 | 2 ± 0.027
51 | ACCCUC | 2.03 ± 0.031 | 2.02 ± 0.032
52 | ACCCUU | 2.02 ± 0.027 | 2.03 ± 0.044
53 | CCUCGU | 2.01 ± 0.037 | 2.01 ± 0.07
54 | CACCGU | 2.02 ± 0.023 | 2.03 ± 0.033
55 | GGCAUC | 2.055 ± 0.014 | 2.03 ± 0.033
56 | AAGUGG | 1.87 ± 0.01 | 2.02 ± 0.041
57 | CUGCUG | 2.044 ± 0.0052 | 2.03 ± 0.041
58 | CUGCUA | 2.02 ± 0.021 | 2.05 ± 0.031
59 | CACCUU | 2.027 ± 0.0059 | 2.01 ± 0.025
60 | AUAGCU | 2 ± 0.016 | 2 ± 0.046
61 | GGGCGA | 2.089 ± 0.0043 | 2.1 ± 0.018
62 | GUACCA | 2.0976 ± 0.0018 | 2.038 ± 0.013
63 | UAGGCA | 1.972 ± 0.00036 | 2.027 ± 0.02
64 | CAAAUU | 2.011 ± 0.0089 | 2.03 ± 0.027
65 | CAAAUG | 2.007 ± 0.0091 | 2.007 ± 0.017
66 | UGGCAC | 2.041 ± 0.016 | 2.04 ± 0.042
67 | UCUGCG | 1.826 ± 0.008 | 2.03 ± 0.034
68 | AAUUAA | 1.95 ± 0.021 | 1.98 ± 0.025
69 | GGGGAU | 2.002 ± 0.0074 | 2.03 ± 0.05
70 | UUCUUU | 2.047 ± 0.0094 | 2.04 ± 0.035
71 | AAUACA | 1.998 ± 0.014 | 1.995 ± 0.015
72 | CCGGGC | 2.102 ± 0.01 | 2.073 ± 0.0025

Row | Variant | normalized RNA/DNA level without ligand (log10) ((6R,S)-folinic acid [1]) | normalized RNA/DNA level with ligand (log10) ((6R,S)-folinic acid [2])
73 | GAGUCU | 2.0246 ± 0.001 | 2.02 ± 0.027
74 | UUGAGU | 1.925 ± 0.015 | 1.96 ± 0.025
75 | GCAAGU | 2.009 ± 0.012 | 2.023 ± 0.02
76 | CUCUCC | 2.1 ± 0.025 | 2.07 ± 0.022
77 | GUGCCU | 2.02 ± 0.024 | 1.98 ± 0.039
78 | UAAACU | 2.008 ± 0.013 | 2.02 ± 0.058
79 | AGUUAC | 2.007 ± 0.0061 | 1.992 ± 0.013
80 | CGGUCA | 2.005 ± 0.014 | 1.98 ± 0.064
81 | GGCGUG | 2.071 ± 0.0047 | 2.06 ± 0.033
82 | UGGGCA | 1.962 ± 0.0051 | 2.01 ± 0.032
83 | CUCACG | 2.04 ± 0.027 | 2.028 ± 0.02
84 | AGCCUC | 2.049 ± 0.012 | 2.03 ± 0.029
85 | AGGUAG | 1.912 ± 0.0057 | 2 ± 0.077
86 | AUCUCC | 2.04 ± 0.0049 | 2.03 ± 0.064
87 | AGUCAG | 1.975 ± 0.016 | 2.02 ± 0.042
88 | UACUAA | 1.973 ± 0.0021 | 2.02 ± 0.0061
89 | GAACGU | 1.988 ± 0.0095 | 2 ± 0.027
90 | CUUUCG | 2.047 ± 0.0046 | 2.053 ± 0.0034
91 | UGCCUC | 2.065 ± 0.0067 | 2 ± 0.065
92 | GCAGAA | 1.942 ± 0.0071 | 2.01 ± 0.044
93 | UCUUGU | 1.976 ± 0.014 | 2.02 ± 0.051
94 | ACACAA | 1.968 ± 0.019 | 1.98 ± 0.045
95 | UUCUGU | 2.03 ± 0.023 | 2.047 ± 0.0083
96 | UUCUGA | 2.016 ± 0.012 | 2.032 ± 0.0073

Row | Variant | normalized RNA/DNA level without ligand (log10) ((6R,S)-folinic acid [1]) | normalized RNA/DNA level with ligand (log10) ((6R,S)-folinic acid [2])
97 | CAUGCU | 2.051 ± 0.019 | 2.05 ± 0.064
98 | UCUUUC | 2.017 ± 0.0074 | 1.996 ± 0.0066
99 | ACCGCC | 2.045 ± 0.02 | 2.05 ± 0.041
100 | AGCUAG | 1.935 ± 0.002 | 2.01 ± 0.025
101 | UACAAC | 2.0034 ± 0.0014 | 2.02 ± 0.034
102 | AUGGUC | 2.055 ± 0.0035 | 2.04 ± 0.029
103 | CAAAAA | 1.962 ± 0.007 | 1.96 ± 0.025
104 | CCGCCC | 2.07 ± 0.025 | 2.04 ± 0.073
105 | AAAGCU | 2.003 ± 0.018 | 2.013 ± 0.013
106 | CGCGUA | 1.993 ± 0.017 | 2.006 ± 0.0037
107 | AGCGAA | 1.96 ± 0.014 | 2.01 ± 0.03
108 | UGCAUA | 1.948 ± 0.015 | 1.99 ± 0.068
109 | CCUAAA | 1.9908 ± 0.0014 | 2.01 ± 0.028
110 | AUACUU | 2.018 ± 0.013 | 2.01 ± 0.043
111 | CUCAGC | 2.06 ± 0.0071 | 2.032 ± 0.0023
112 | GAUCUC | 2.0583 ± 0.00073 | 1.99 ± 0.035
113 | CCUCUC | 2.072 ± 0.018 | 2.04 ± 0.078
114 | GCCUUG | 1.994 ± 0.0032 | 2.03 ± 0.033
115 | GCCUUU | 2.04 ± 0.032 | 2.05 ± 0.044
116 | AUACGU | 2.005 ± 0.0023 | 2.026 ± 0.01
